T1: S5-Pore peptide
T1 construct: Peptide of the S5-pore extracellular portion of hERG1; also called S5PORO peptide; peptide S5PORO
T1 peptide: EQPHMDSRIGWLHN


What was measured:
hERG1 [1] = target: T2, hERG1 (human, UniProt Q12809 1-1159); assay: cell-based or functional assay
hERG1 [2] = target: T2, hERG1; assay: immunofluorescence on fixed and live HEK293-hERG1 cells, intensity by ImageJ
Experimental: Then an immunofluorescence analysis was performed using scFv-hERG1-G3 and scFv-hERG1-D8Cys on fixed cells, to determine the immunoreactivity of the two antibodies. […] Data analysis obtained using ImageJ Software is reported in the graphs reported in panel C.
Cells were seeded O/N on glass coverslips and then washed once with PBS and fixed with 4% paraformaldeide for 20 min at room temperature. Blocking was performed with 10% BSA for 2 h at room temperature. Antibody incubation was performed using scFv-hERG1-G3, scFv-hERG1-D8Cys, diluted 1:20 in blocking solution and incubated for 2 and half hours, followed by anti-His (1:250; Abcam) O/N incubation in blocking solution. The following day, cells were washed three times with PBS and incubated with anti-mouse Alexa488 antibody (Invitrogen) for 1 h. Whereas, scFv-hERG1-G3-Alexa488 and scFv-hERG1-D8Cys-Alexa488, diluted 1:20 in blocking solution, were incubated O/N at 4° C.
Cells were grown O/N on 60 mm plates (Sarstedt) using an agarose (15 g/L) ring in order to isolate cells and minimize the volumes of reagents needed for incubations. Cells were incubated with scFv-hERG1-G3-Alexa488 and scFv-hERG1-D8Cys-Alexa488 diluted 1:20 in complete culture medium in a 37° C. incubator with 5% C02 for 4 h. Rivelation was performed using Hoechst, as previously described. Cells were visualized on a inverted light microscopy (Nikon, Eclipse TE300).

S5-Pore peptide = target: T1, S5-Pore peptide; assay: binding to immobilized antigen (method section: ELISA on plates coated with S5-Pore peptide)
Experimental: To evaluate if the two engineered antibodies, scFv-hERG1-G3 and scFv-hERG1-D8Cys, have still the ability to bind the antigen and afterwards to investigate the different affinity of the two antibodies ELISA assays were performed using plates coated with S5-Pore peptide (sequence: […]), towards which the antibody is directed. This peptide is the same we used to screen anti-hERG1 A7 antibody.

T2 sequence (Q12809 whole entry): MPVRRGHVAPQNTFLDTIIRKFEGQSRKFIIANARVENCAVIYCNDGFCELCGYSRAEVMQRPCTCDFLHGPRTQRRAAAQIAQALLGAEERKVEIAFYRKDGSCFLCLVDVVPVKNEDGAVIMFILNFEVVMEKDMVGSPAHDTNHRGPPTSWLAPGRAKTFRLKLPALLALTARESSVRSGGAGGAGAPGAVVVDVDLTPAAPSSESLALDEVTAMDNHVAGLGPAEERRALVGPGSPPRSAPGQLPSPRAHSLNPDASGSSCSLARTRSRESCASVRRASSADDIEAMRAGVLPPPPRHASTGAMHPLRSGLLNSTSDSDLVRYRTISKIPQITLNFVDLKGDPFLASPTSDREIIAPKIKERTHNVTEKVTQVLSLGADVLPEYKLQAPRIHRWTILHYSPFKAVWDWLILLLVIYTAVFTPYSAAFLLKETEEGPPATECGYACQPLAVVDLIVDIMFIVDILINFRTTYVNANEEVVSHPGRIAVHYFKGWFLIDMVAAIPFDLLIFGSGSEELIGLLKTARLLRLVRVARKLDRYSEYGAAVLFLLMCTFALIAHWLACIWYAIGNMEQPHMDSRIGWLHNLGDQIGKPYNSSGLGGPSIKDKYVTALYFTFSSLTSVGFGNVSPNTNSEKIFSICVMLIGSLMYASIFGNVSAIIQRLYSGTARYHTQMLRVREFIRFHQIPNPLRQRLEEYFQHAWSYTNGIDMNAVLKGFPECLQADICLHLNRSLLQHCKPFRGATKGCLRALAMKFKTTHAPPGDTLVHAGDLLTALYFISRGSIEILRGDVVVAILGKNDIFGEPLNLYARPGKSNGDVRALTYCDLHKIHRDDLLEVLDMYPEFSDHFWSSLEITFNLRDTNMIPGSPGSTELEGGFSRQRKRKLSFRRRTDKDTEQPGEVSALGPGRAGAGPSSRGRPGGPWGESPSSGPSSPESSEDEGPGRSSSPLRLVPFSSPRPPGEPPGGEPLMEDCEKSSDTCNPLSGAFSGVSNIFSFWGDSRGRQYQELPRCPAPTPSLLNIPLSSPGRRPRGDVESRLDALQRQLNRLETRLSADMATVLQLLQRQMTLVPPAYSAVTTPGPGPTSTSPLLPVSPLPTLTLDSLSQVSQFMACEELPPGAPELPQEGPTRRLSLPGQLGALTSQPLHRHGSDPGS

Row | Binder | IC50, cell viability of MDA-MB 231 cells (hERG1 [1]) [µg/mL] | IC50, cell viability of PANC-1 cells (hERG1 [1]) [µg/mL] | binding result (hERG1 [2]) | binding result (S5-Pore peptide)
1 | scDb-hERG1-Cys-β1 (bispecific antibody) EAECADEVQLQQSGPELVKPGASVKISCKTSGYTFTEYTVHWVKQSHGKSLEWIGGINPNGGTTYNQKFKGKATLTIDKSSSSAFMELRSLTSEDSAVYYCATGWGPDYWGQGTTLTVSSAKTTPPSVYPLAPGSSDIVMTQTPTTMAASPGDKITITCSVSSIISSNYLHWYSQKPGFSPKLLIYRTSNLASGVPPRFSGSGSGTSYSLTIGTMEAEDVATYYCQQGSDIPLTFGDGTKLDLKRADAAPTVSGGGGSGGGGSGGGGSGGGGSEVKVVESGGGLVKPGGSLKLSCAASGFTFSSYTMSWVRQTPEKRLEWVATISSGGSYTYYPDSVKGRFTISRDKAKNTLYLQMGSLKSEDTAMYYCTRIGYDEDYAMDHWGQGTSVTVSSAKTTPPSVYSALDIVLTQSPLTLSVNIGQPASISCKSSQSLLYTNGKTYFNWLLQRPGQSPKRLIYLVSKLDSGVPDRFTGSGSGTDFTLKISRVEAEDLGVYYCAQGTHFPWTFGGGTKLEIKRADAAPTVSAAAEQKLISEEDLNGAPRHHHHHHHH | 42 | 24 | – | –
2 | scFv-hERG1-D8Cys (scFv, Clone D8, expressed in Pichia pastoris from pPIC9K with a 6xHis tag; Also tested after conjugation with Alexa 488; also called scFv-hERG1-Cys; anti-hERG1-Cys scFv) scFv: EVQLQQSGPELVKPGASVKISCKTSGYTFTEYTVHWVKQSHGKSLEWIGGINPNGGTTYNQKFKGKATLTIDKSSSSAFMELRSLTSEDSAVYYCATGWGPDYWGQGTTLTVSSAKTTPPSVYPLAPGSSGGGGSGGGGSGGSALDIVLTQSPLTLSVNIGQPASISCKSSQSLLYTNGKTYFNWLLQRPGQSPKRLIYLVSKLDSGVPDRFTGSGSGTDFTLKISRVEAEDLGVYYCAQGTHFPWTFGGGTKLEIKRADAAPTVSAAAEQKLISEEDLNGAA | – | – | binds | binds

Reference: patent publication US20210147574A1 (UNIVERSIT DEGLI STUDI DI FIRENZE, published 2021)
